To fix the notation:
B1: PBXIP1 (parent)
chain: FGEDGIFRHDRLRFRDFVDALEDS
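Also: lentivirally expressed fusions sorted by FACS into six bins by GFP to DsRed ratio, PSI derived from sequencing read proportions per bin multiplied by bin number.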

In the data set the parent is B1. The experiment in a line: protein stability index of a GFP-peptide fusion (GPS, HEK-293T) (PSI 1-6); higher = more stable. The settings on record: c terminus: a fixed tail appended.
With FGEDGIFRHDRLRFRDFVDALRDS [E22R], the protein stability index is 2.38.

As to FGEDGIFRHDRLRFRDFVDALDDS [E22D], the protein stability index was found to be 2.26.

For FGEDGIFRHDRLRFRDFVDALYDS [E22Y], the protein stability index was determined as 2.11.

Regarding FGEDGIFRHDRLRFRDFVDALGDS [E22G], the protein stability index was found to be 2.05.

On to FGEDGIFRHDRLRFRDFVDALSDS [E22S], for which the protein stability index was 2.71.

Consider FGEDGIFRHDRLRFRDFVDALFDS [E22F], for which the protein stability index amounted to 1.65.

With FGEDGIFRHDRLRFRDFVDALNDS [E22N], the protein stability index stood at 2.56.

In the case of FGEDGIFRHDRLRFRDFVDALQDS [E22Q], the protein stability index came out at 2.24.

Regarding FGEDGIFRHDRLRFRDFVDALADS [E22A], the protein stability index was determined as 2.

For FGEDGIFRHDRLRFRDFVDALKDS [E22K], the protein stability index was determined as 2.08.

In the case of FGEDGIFRHDRLRFRDFVDALTDS [E22T], the protein stability index was 2.08.

For the variant FGEDGIFRHDRLRFRDFVDALMDS [E22M], the protein stability index came to 1.89.

On to FGEDGIFRHDRLRFRDFVDALVDS [E22V], for which the protein stability index is 2.2.

For FGEDGIFRHDRLRFRDFVDALIDS [E22I], the protein stability index worked out at 1.76.

Regarding FGEDGIFRHDRLRFRDFVDALPDS [E22P], the protein stability index came to 2.81.

For the variant FGEDGIFRHDRLRFRDFVDALHDS [E22H], the protein stability index amounted to 2.37.

Take FGEDGIFRHDRLRFRDFVDALLDS [E22L]: the protein stability index is 2.97.

Take FGEDGIFRHDRLRFRDFVDALWDS [E22W]: the protein stability index was found to be 1.97.

FGEDGIFRHDRLRFRDFVDALCDS [E22C]: the protein stability index was 1.93.

Regarding FGEDGIFRHDRLRFRDFVDALEVS [D23V], the protein stability index turned out to be 2.29.

For the variant FGEDGIFRHDRLRFRDFVDALELS [D23L], the protein stability index was 2.42.

Take FGEDGIFRHDRLRFRDFVDALEFS [D23F]: the protein stability index is 1.92.

Take FGEDGIFRHDRLRFRDFVDALEKS [D23K]: the protein stability index was determined as 2.23.

Regarding FGEDGIFRHDRLRFRDFVDALEES [D23E], the protein stability index was 2.61.

FGEDGIFRHDRLRFRDFVDALERS [D23R]: the protein stability index is 1.98.

Regarding FGEDGIFRHDRLRFRDFVDALEAS [D23A], the protein stability index is 2.22.

For the variant FGEDGIFRHDRLRFRDFVDALEPS [D23P], the protein stability index stood at 2.35.

As for FGEDGIFRHDRLRFRDFVDALEIS [D23I], the protein stability index was determined as 1.93.

For FGEDGIFRHDRLRFRDFVDALEMS [D23M], the protein stability index stood at 2.32.

Regarding FGEDGIFRHDRLRFRDFVDALECS [D23C], the protein stability index came to 2.21.

For the variant FGEDGIFRHDRLRFRDFVDALESS [D23S], the protein stability index came out at 2.22.

For the variant FGEDGIFRHDRLRFRDFVDALEHS [D23H], the protein stability index amounted to 2.34.

In the case of FGEDGIFRHDRLRFRDFVDALEQS [D23Q], the protein stability index stood at 2.82.

For FGEDGIFRHDRLRFRDFVDALEWS [D23W], the protein stability index came to 1.84.

As for FGEDGIFRHDRLRFRDFVDALEGS [D23G], the protein stability index was determined as 3.02.

FGEDGIFRHDRLRFRDFVDALETS [D23T]: the protein stability index worked out at 2.55.

FGEDGIFRHDRLRFRDFVDALENS [D23N]: the protein stability index was found to be 2.94.

For the variant FGEDGIFRHDRLRFRDFVEALEDS [D19E], the protein stability index worked out at 2.6.

Turning to FGEDGIFRHDRLRFRDFVGALEDS [D19G], the protein stability index was found to be 2.37.

Regarding FGEDGIFRHDRLRFRDFVYALEDS [D19Y], the protein stability index is 2.35.

Take FGEDGIFRHDRLRFRDFVAALEDS [D19A]: the protein stability index worked out at 2.59.

Consider FGEDGIFRHDRLRFRDFVQALEDS [D19Q], for which the protein stability index came to 2.49.

On to FGEDGIFRHDRLRFRDFVRALEDS [D19R], for which the protein stability index was determined as 2.48.

On to FGEDGIFRHDRLRFRDFVVALEDS [D19V], for which the protein stability index turned out to be 1.91.

Regarding FGEDGIFRHDRLRFRDFVHALEDS [D19H], the protein stability index was 2.9.

Turning to FGEDGIFRHDRLRFRDFVWALEDS [D19W], the protein stability index is 2.18.

For the variant FGEDGIFRHDRLRFRDFVPALEDS [D19P], the protein stability index is 2.53.

As for FGEDGIFRHDRLRFRDFVSALEDS [D19S], the protein stability index came to 2.4.

Consider FGEDGIFRHDRLRFRDFVKALEDS [D19K], for which the protein stability index amounted to 2.9.

As to FGEDGIFRHDRLRFRDFVMALEDS [D19M], the protein stability index was 2.56.

With FGEDGIFRHDRLRFRDFVLALEDS [D19L], the protein stability index was found to be 1.61.

Take FGEDGIFRHDRLRFRDFVFALEDS [D19F]: the protein stability index came out at 2.22.

Regarding FGEDGIFRHDRLRFRDFVIALEDS [D19I], the protein stability index stood at 1.91.

Consider FGEDGIFRHDRLRFRDFVCALEDS [D19C], for which the protein stability index is 2.47.

Regarding FGEDGIFRHDRLRFRDFVTALEDS [D19T], the protein stability index turned out to be 2.61.

Turning to FGEDGIFRHDRLRFRDFVNALEDS [D19N], the protein stability index came out at 2.65.

On to FGEDGIFRHDRLRFRDFVDADEDS [L21D], for which the protein stability index was 3.68.

As for FGEDGIFRHDRLRFRDFVDACEDS [L21C], the protein stability index worked out at 3.48.

With FGEDGIFRHDRLRFRDFVDAQEDS [L21Q], the protein stability index came to 3.57.

For FGEDGIFRHDRLRFRDFVDAFEDS [L21F], the protein stability index is 2.73.

As to FGEDGIFRHDRLRFRDFVDANEDS [L21N], the protein stability index was 3.73.

Consider FGEDGIFRHDRLRFRDFVDAMEDS [L21M], for which the protein stability index worked out at 3.12.

With FGEDGIFRHDRLRFRDFVDAVEDS [L21V], the protein stability index amounted to 2.94.

As to FGEDGIFRHDRLRFRDFVDAEEDS [L21E], the protein stability index worked out at 3.67.

As for FGEDGIFRHDRLRFRDFVDAAEDS [L21A], the protein stability index stood at 3.32.

Take FGEDGIFRHDRLRFRDFVDAHEDS [L21H]: the protein stability index stood at 3.

For the variant FGEDGIFRHDRLRFRDFVDAREDS [L21R], the protein stability index was determined as 3.01.

On to FGEDGIFRHDRLRFRDFVDATEDS [L21T], for which the protein stability index turned out to be 3.13.

On to FGEDGIFRHDRLRFRDFVDASEDS [L21S], for which the protein stability index was determined as 3.24.

For FGEDGIFRHDRLRFRDFVDAWEDS [L21W], the protein stability index came out at 2.57.

Turning to FGEDGIFRHDRLRFRDFVDAGEDS [L21G], the protein stability index was 2.97.

FGEDGIFRHDRLRFRDFVDAPEDS [L21P]: the protein stability index was found to be 3.65.

As for FGEDGIFRHDRLRFRDFVDAIEDS [L21I], the protein stability index was 3.07.

With FGEDGIFRHDRLRFRDFVDAYEDS [L21Y], the protein stability index came out at 3.18.

FGEDGIFRHDRLRFRDFVDAKEDS [L21K]: the protein stability index turned out to be 3.3.

Take FGEDGIFRHDRLRFRDFVDNLEDS [A20N]: the protein stability index worked out at 2.78.

Regarding FGEDGIFRHDRLRFRDFVDILEDS [A20I], the protein stability index amounted to 2.28.

Regarding FGEDGIFRHDRLRFRDFVDTLEDS [A20T], the protein stability index was determined as 2.21.

On to FGEDGIFRHDRLRFRDFVDRLEDS [A20R], for which the protein stability index amounted to 3.01.

Take FGEDGIFRHDRLRFRDFVDDLEDS [A20D]: the protein stability index was found to be 3.23.

For the variant FGEDGIFRHDRLRFRDFVDQLEDS [A20Q], the protein stability index was found to be 2.95.

Regarding FGEDGIFRHDRLRFRDFVDLLEDS [A20L], the protein stability index was found to be 2.09.

For FGEDGIFRHDRLRFRDFVDPLEDS [A20P], the protein stability index came out at 3.06.

On to FGEDGIFRHDRLRFRDFVDCLEDS [A20C], for which the protein stability index was found to be 3.05.

Turning to FGEDGIFRHDRLRFRDFVDGLEDS [A20G], the protein stability index turned out to be 3.41.

Consider FGEDGIFRHDRLRFRDFVDYLEDS [A20Y], for which the protein stability index is 2.11.

On to FGEDGIFRHDRLRFRDFVDSLEDS [A20S], for which the protein stability index came out at 3.18.

On to FGEDGIFRHDRLRFRDFVDELEDS [A20E], for which the protein stability index is 3.25.

On to FGEDGIFRHDRLRFRDFVDMLEDS [A20M], for which the protein stability index came to 2.13.

Take FGEDGIFRHDRLRFRDFVDFLEDS [A20F]: the protein stability index amounted to 2.38.

FGEDGIFRHDRLRFRDFVDVLEDS [A20V]: the protein stability index was 2.49.

FGEDGIFRHDRLRFRDFVDKLEDS [A20K]: the protein stability index was 3.6.

In the case of FGEDGIFRHDRLRFRDFVDHLEDS [A20H], the protein stability index worked out at 2.42.

Turning to FGEDGIFRHDRLRFRDFVDWLEDS [A20W], the protein stability index turned out to be 2.46.

The values are drawn from the supplement of paper PMC10567573.
